Assay results from IntAct's records for PubMed 35266954.

B1: Probable E3 ubiquitin-protein ligase MID2 (Homo sapiens), Q9UJV3 (parent)
chain: MGESPASVVLNASGGLFSLKMETLESELTCPICLELFEDPLLLPCAHSLCFSCAHRILVSSCSSGESIEPITAFQCPTCRYVISLNHRGLDGLKRNVTLQNIIDRFQKASVSGPNSPSESRRERTYRPTTAMSSERIACQFCEQDPPRDAVKTCITCEVSYCDRCLRATHPNKKPFTSHRLVEPVPDTHLRGITCLDHENEKVNMYCVSDDQLICALCKLVGRHRDHQVASLNDRFEKLKQTLEMNLTNLVKRNSELENQMAKLIQICQQVEVNTAMHEAKLMEECDELVEIIQQRKQMIAVKIKETKVMKLRKLAQQVANCRQCLERSTVLINQAEHILKENDQARFLQSAKNIAERVAMATASSQVLIPDINFNDAFENFALDFSREKKLLEGLDYLTAPNPPSIREELCTASHDTITVHWISDDEFSISSYELQYTIFTGQANFISKSWCSWGLWPEIRKCKEAVSCSRLAGAPRGLYNSVDSWMIVPNIKQNHYTVHGLQSGTRYIFIVKAINQAGSRNSEPTRLKTNSQPFKLDPKMTHKKLKISNDGLQMEKDESSLKKSHTPERFSGTGCYGAAGNIFIDSGCHYWEVVMGSSTWYAIGIAYKSAPKNEWIGKNASSWVFSRCNSNFVVRHNNKEMLVDVPPHLKRLGVLLDYDNNMLSFYDPANSLHLHTFDVTFILPVCPTFTIWNKSLMILSGLPAPDFIDYPERQECNCRPQESPYVSGMKTCH

Variants of: B1
Conditions: with lrrk2_human LRRK2, Q5S007
lrrk2_human LRRK2, Q5S007, sequence (Q5S007 whole entry): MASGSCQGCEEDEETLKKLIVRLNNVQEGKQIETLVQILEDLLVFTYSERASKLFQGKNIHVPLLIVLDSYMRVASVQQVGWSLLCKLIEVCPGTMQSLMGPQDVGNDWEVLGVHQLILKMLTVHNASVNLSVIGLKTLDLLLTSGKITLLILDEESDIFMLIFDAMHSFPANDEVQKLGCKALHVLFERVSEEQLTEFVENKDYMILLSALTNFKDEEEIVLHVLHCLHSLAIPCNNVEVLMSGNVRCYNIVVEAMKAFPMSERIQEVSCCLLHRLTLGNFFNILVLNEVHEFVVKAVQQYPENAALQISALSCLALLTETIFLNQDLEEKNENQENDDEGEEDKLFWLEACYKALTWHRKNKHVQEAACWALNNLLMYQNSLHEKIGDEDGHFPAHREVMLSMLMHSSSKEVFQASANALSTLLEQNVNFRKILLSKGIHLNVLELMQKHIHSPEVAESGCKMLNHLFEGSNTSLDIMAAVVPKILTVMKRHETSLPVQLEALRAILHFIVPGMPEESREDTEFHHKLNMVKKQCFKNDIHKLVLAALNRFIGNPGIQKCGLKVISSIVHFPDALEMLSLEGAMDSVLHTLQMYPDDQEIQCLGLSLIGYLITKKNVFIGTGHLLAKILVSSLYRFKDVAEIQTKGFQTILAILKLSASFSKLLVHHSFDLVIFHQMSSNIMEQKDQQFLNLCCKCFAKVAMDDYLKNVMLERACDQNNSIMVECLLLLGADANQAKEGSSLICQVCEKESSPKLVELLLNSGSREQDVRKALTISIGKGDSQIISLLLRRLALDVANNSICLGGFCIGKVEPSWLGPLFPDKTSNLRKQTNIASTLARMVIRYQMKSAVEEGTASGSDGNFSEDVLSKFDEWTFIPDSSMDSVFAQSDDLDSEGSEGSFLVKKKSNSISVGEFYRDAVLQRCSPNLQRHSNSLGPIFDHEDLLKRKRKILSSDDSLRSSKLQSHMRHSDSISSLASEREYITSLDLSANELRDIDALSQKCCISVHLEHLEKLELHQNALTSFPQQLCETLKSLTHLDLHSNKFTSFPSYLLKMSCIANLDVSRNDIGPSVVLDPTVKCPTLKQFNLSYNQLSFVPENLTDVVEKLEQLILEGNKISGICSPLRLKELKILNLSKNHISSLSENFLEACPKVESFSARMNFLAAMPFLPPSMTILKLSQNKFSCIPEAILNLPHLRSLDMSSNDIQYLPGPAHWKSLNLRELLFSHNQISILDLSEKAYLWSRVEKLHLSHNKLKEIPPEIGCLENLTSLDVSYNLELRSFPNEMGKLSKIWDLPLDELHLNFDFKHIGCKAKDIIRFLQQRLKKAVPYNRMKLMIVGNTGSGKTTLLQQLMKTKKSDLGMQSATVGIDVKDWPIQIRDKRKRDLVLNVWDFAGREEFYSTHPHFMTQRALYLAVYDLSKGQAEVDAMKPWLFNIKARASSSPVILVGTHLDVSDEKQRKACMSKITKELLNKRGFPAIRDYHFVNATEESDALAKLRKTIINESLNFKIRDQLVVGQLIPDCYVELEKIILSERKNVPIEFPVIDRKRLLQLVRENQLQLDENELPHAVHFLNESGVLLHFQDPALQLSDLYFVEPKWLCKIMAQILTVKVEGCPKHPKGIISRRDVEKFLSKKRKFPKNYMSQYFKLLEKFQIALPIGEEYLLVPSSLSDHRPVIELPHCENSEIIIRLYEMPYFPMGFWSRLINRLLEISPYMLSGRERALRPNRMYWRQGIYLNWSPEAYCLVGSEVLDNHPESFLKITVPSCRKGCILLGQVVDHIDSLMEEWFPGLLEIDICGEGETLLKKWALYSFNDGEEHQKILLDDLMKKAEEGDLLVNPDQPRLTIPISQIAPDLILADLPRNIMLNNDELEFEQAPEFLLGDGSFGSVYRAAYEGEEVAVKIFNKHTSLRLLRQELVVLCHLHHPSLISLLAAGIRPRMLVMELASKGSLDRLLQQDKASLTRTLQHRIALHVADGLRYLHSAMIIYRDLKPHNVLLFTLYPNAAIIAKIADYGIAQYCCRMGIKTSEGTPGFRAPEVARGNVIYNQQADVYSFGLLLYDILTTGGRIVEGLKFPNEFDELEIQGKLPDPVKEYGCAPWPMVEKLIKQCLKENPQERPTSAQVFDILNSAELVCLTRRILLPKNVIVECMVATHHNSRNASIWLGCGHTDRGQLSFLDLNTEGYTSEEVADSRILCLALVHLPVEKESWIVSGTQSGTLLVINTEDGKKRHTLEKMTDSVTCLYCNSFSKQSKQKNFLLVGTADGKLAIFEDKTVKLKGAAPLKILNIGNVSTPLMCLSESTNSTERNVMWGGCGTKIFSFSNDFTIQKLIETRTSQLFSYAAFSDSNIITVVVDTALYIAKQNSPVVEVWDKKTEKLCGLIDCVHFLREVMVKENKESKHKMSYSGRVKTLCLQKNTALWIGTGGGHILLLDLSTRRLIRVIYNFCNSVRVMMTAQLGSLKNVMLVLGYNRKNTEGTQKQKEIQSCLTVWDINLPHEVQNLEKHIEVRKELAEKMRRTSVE

effect of a mutation on the interaction	Variant
with no effect	F348A;L349A;Q350A;L396A;D397A;Y398A
